7 molecules from US20240360246A1 (BIO Y A S, published 2024) can be followed below.

Test [1] deals with T1, Human YKL-40 also known as Chitinase-3-like protein 1 (CHI3L1) (human, UniProt P36222 22-383).
T1 construct: Secreted protein purified from MG63 supernatant or purchased (Catalogue #2599-CH); also called hYKL-40
The experiment in a line: phage ELISA. In general terms: In an ELISA, binding on a coated surface is turned into a signal by an enzyme label.

Test [2] addresses T1, Human YKL-40 also known as …. The experiment in a line: dot blot. On the procedure:
A dot blot was performed by adding 0.4 μg and 0.2 μg of hYKL-40, 0.4 μg and 0.2 μg mYKL-40, 0.4 μg and 0.2 μg of calmodulin (negative control) and PBS (negative control) onto the nitrocellulose membrane. The membrane was incubated with B3 (SEQ ID NO: 3)-hFc.
A dot blot was performed by adding 0.4 μg and 0.2 μg of hYKL-40, 0.4 μg and 0.2 μg mYKL-40, 0.4 μg and 0.2 μg of calmodulin (negative control) and PBS (negative control) onto the nitrocellulose membrane. The area that the solution penetrates was minimized. The membrane was dried for 1 h at room temperature (RT). Afterwards the membrane was blocked in PBS with 0.1% Tween overnight at 4° C. followed by three washing steps with PBS with 0.1% Tween. The membrane was incubated with B3-hFc (1 μg/mL) in blocking buffer for 2 h at RT in a shaker followed by three washing steps with PBS with 0.1% Tween. The membrane was incubated with HRP anti-human secondary antibody for 2 hours at RT in shaker followed by three washing steps with PBS with 0.1% Tween. The western blot was developed with western blotting detection reagent.

Test [3] shares this target. The test is described as follows: western blot. On the procedure:
For the western blot 0.5 μg hYKL-40 or mYKL-40 were loaded onto a 4-20% SurePAGE, Bis-TRIS gel. The gel was run at 120V for 70 min and afterwards the samples were transferred to a nitrocellulose membrane using iBlot system. The membrane was incubated with 1 μg/ml primary antibody B10 (SEQ ID NO: 4)-hFc.
Background: In western blotting, separated proteins are transferred to a membrane and probed.

Test [4] has the same target. The experiment in a line: ELISA, plate coated with 2.5 µg/ml hYKL-40. The method, then:
A 96-well ELISA plate were coated with 2.5 μg/ml hYKL-40 or 2.5 μg/ml calmodulin as control. 0.25 μg/ml (8), […] (7), 1 μg/ml (6), 2.5 μg/ml (5), 6.25 μg/ml (4), 12.5 μg/ml (3), 15 μg/ml (2) and 20 μg/ml (1) of the antibodies B3 (SEQ ID NO: 3)-mFc or B10 (SEQ ID NO: 4)-mFc were added.

The target of a further test is T2, Murine YKL-40 (mouse, UniProt Q61362 30-389).
T2 construct: Purchased (Catalogue #2649-CH); also called mYKL-40; mouse YKL-40
T2 sequence (Q61362 30-389 limits assumed): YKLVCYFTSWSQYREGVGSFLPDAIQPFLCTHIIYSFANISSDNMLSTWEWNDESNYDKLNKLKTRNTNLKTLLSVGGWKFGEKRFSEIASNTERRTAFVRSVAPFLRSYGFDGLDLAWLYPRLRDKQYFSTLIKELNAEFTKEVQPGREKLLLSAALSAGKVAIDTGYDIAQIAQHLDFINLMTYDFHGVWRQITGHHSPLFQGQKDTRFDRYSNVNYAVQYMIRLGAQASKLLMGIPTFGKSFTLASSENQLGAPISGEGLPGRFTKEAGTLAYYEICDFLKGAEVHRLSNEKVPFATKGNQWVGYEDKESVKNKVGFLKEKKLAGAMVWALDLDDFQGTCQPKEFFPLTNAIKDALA
The test is described as follows: ELISA.

Test [5] deals with T1, Human YKL-40 also known as …. The test is described as follows: ELISA.

T1 sequence (P36222 22-383 limits assumed): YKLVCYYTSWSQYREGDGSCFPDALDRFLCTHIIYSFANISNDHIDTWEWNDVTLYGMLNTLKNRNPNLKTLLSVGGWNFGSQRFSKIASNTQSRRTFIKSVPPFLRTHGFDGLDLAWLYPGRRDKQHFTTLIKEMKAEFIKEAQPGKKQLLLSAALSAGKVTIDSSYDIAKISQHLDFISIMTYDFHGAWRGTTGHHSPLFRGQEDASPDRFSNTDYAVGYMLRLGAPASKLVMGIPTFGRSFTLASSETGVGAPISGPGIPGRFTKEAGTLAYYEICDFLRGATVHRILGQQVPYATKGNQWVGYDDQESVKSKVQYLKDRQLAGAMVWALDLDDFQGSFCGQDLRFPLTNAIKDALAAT

B1: B3 predator (phage antibody clone B3) (antibody, V domains shown)
VH: EVQLLESGGGLVQPGGSLRLSCAASGFRDSDEDMGWVRQAPGKGLEWVSSISAPGGSTYYADSVKGRFTISRDNSKNTLYLQMNSLRAEDTAVYYCASHYNYGHWFDYWGQGTLVTVSS
In the case of B1, the binding result in test [1] was “binds”.

B2: B10 predator (phage antibody clone B10) (antibody, V domains shown)
VH: EVQLLESGGGLVQPGGSLRLSCAASGFRDSDEDMGWVRQAPGKGLEWVSSISADSGSTYYADSVKGRFTISRDNSKNTLYLQMNSLRAEDTAVYYCASDYNYWYWFDYWGQGTLVTVSS
With B2, the binding result in test [1] is “binds”.

B3: B3 (SEQ ID NO: 3) fused to a human Fc (hFc) (Fc fusion)
chain: MAEVQLLESGGGLVQPGGSLRLSCAASGFRDSDEDMGWVRQAPGKGLEWVSSISAPGGSTYYADSVKGRFTISRDNSKNTLYLQMNSLRAEDTAVYYCASHYNYGHWFDYWGQGTLVTVSSAAVECPPCPAPPVAGPSVFLFPPKPKDTLMISRTPEVTCVVVDVSHEDPEVQFNWYVDGMEVHNAKTKPREEQFNSTFRVVSVLTVVHQDWLNGKEYKCKVSNKGLPAPIEKTISKTKGQPREPQVYTLPPSREEMTKNQVSLTCLVKGFYPSDIAVEWESNGQPENNYKTTPPMLDSDGSFFLYSKLTVDKSRWQQGNVFSCSVMHEALHNHYTQKSLSLSPGK
notes: VH domain fused to human Fc; no linker stated; also called B3-hFc
For the molecule B3, the binding result in test [2] is listed as “binds”.

B4: B10 (SEQ ID NO: 4) fused to a human Fc (Fc fusion)
chain: MAEVQLLESGGGLVQPGGSLRLSCAASGFRDSDEDMGWVRQAPGKGLEWVSSISADSGSTYYADSVKGRFTISRDNSKNTLYLQMNSLRAEDTAVYYCASDYNYWYWFDYWGQGTLVTVSSAAVECPPCPAPPVAGPSVFLFPPKPKDTLMISRTPEVTCVVVDVSHEDPEVQFNWYVDGMEVHNAKTKPREEQFNSTFRVVSVLTVVHQDWLNGKEYKCKVSNKGLPAPIEKTISKTKGQPREPQVYTLPPSREEMTKNQVSLTCLVKGFYPSDIAVEWESNGQPENNYKTTPPMLDSDGSFFLYSKLTVDKSRWQQGNVFSCSVMHEALHNHYTQKSLSLSPGK
notes: VH domain fused to human Fc; no linker stated; also called B10-hFc
Regarding B4, in test [3], the binding result is reported as “binds”.

B5: B3 (SEQ ID NO: 3) fused to murine Fc (mFc) (Fc fusion)
chain: MAEVQLLESGGGLVQPGGSLRLSCAASGFRDSDEDMGWVRQAPGKGLEWVSSISAPGGSTYYADSVKGRFTISRDNSKNTLYLQMNSLRAEDTAVYYCASHYNYGHWFDYWGQGTLVTVSSAARSPPLKECPPCAAPDLLGGPSVFIFPPKIKDVLMISLSPMVTCVVVDVSEDDPDVQISWFVNNVEVHTAQTQTHREDYNSTLRVVSALPIQHQDWMSGKEFKCKVNNRALPSPIEKTISKPRGPVRAPQVYVLPPPAEEMTKKEFSLTCMITGFLPAEIAVDWTSNGRTEQNYKNTATVLDSDGSYFMYSKLRVQKSTWERGSLFACSVVHEGLHNHLTTKTISRSLGK
notes: VH domain fused to murine Fc; no linker stated; also called B3-mFc; B3 mouse
With B5, the binding result in test [4] is listed as “binds”.

B6: B10 (SEQ ID NO: 4) fused to mFc (Fc fusion)
chain: MAEVQLLESGGGLVQPGGSLRLSCAASGFRDSDEDMGWVRQAPGKGLEWVSSISADSGSTYYADSVKGRFTISRDNSKNTLYLQMNSLRAEDTAVYYCASDYNYWYWFDYWGQGTLVTVSSAARSPPLKECPPCAAPDLLGGPSVFIFPPKIKDVLMISLSPMVTCVVVDVSEDDPDVQISWFVNNVEVHTAQTQTHREDYNSTLRVVSALPIQHQDWMSGKEFKCKVNNRALPSPIEKTISKPRGPVRAPQVYVLPPPAEEMTKKEFSLTCMITGFLPAEIAVDWTSNGRTEQNYKNTATVLDSDGSYFMYSKLRVQKSTWERGSLFACSVVHEGLHNHLTTKTISRSLGK
notes: VH domain fused to murine Fc; no linker stated; also called B10-mFc; B10 mouse
Consider B6, for which the binding result in test [4] was “binds”.

B7: H7 antibody comprising a VL of SEQ ID NO: 14 and a VH of SEQ ID NO: 15 fused to human Fc regions (antibody, human IgG1, kappa, V domains shown)
VH: EVQLQQSGAELVKPGASVKLSCTASGFNIKDTYMHWVKQRPEQGLEWIGRIDPANGNTIYASKFQGKATITRDTSSNTAYMQLSSLTSGDTAVYYCTRGVYYYGGSFYAMDYWGQGTSVTVSS
VL: DIQMTQSPASLSASVGETVTITCGASENIYGALNWYQRKQGKSPQLLIYGATTLADGMSSRFSGSGSGRQYSLKISSLHPDDVATYYCQNVLTTPWTFGGGTKLEIKT
notes: Chimeric mouse/human antibody; also called H7-hFc
B7: the binding result (with Murine YKL-40; in test [5]) was “binds” each time.
